Laboratory results as given in patent publication US20030176373, “Agents that modulate DNA-PK activity and methods of use thereof” (published 2003).

Assays:
[1] = target: T1, Ku70/Ku80 heterodimer (Ku antigen) (Mus musculus, UniProt P23475;P27641 P23475:2-608,P27641:1-732); test: competition; unlabeled 0.1-0.4 ug displaces labeled ds-ISS-ODN
Method: (§1) To verify the binding specificity of the Ku protein to ISS-ODN, inhibition studies were performed using cold ss or ds ISS or mutated (M, i.e., control) ODNs. Ten μg of fraction 20 from the affinity column were incubated with [³²P]-labeled ISS-ODN in the presence of unlabeled (0.1, 0.2 and 0.4 μg, respectively) ss-ISS-ODN (lanes 3-5), ds-ISS-ODN (lanes 7-9), ss-M-ODN (lanes 11-13) or ds-M-ODN (lanes 15-17).

[2] = target: T1, Ku70/Ku80 heterodimer (Ku antigen); test: competition; no significant competition at 0.1-0.4 ug
Method: as §1

T1 sequence (P23475 2-608, chain 1 of 2): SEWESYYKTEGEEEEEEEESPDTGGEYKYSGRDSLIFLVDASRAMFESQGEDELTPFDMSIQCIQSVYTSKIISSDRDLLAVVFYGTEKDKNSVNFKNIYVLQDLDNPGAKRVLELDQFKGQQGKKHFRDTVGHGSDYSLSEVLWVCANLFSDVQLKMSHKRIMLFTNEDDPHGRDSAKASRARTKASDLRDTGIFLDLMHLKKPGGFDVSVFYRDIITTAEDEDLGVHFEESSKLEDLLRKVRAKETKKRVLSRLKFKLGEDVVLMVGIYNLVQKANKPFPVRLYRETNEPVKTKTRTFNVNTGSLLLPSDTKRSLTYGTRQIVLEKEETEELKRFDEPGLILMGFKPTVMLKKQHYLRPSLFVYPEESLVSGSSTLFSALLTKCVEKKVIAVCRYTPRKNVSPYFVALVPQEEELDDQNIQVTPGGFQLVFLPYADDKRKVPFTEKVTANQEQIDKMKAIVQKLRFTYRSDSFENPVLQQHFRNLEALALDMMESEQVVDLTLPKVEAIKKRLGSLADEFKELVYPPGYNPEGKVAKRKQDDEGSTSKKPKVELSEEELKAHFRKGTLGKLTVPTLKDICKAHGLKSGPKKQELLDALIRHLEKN
T1 sequence (P27641 whole entry, chain 2 of 2): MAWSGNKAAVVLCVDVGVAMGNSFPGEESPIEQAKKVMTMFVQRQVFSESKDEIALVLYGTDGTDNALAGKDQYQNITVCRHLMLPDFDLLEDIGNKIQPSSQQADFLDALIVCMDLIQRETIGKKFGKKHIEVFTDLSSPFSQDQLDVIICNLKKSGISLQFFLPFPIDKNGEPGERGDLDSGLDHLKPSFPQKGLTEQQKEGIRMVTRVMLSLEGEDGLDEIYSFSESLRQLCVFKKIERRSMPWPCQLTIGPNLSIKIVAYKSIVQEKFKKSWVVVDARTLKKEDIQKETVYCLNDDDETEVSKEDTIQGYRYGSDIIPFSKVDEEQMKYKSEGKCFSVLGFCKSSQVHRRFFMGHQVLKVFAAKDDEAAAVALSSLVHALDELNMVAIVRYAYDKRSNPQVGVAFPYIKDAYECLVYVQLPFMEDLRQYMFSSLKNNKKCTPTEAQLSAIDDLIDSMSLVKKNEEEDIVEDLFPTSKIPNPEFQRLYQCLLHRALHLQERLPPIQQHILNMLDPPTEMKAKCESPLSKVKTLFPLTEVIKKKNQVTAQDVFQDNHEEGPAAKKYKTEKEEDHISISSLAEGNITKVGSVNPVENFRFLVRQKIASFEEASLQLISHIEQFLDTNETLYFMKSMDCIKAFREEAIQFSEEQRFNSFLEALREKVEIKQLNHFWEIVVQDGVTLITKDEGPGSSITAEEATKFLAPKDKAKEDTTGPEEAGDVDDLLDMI

Binder | binding result [1] | binding result [2]
TGACTGTGAACGTTCGAGATGA (ssDNA) [ss-ISS-ODN] | binds | –
TGACTGTGAACCTTAGAGATGA (ssDNA) [ss-M-ODN] | – | no binding
